Data reported in paper PMC3913574.

Molecular target: T1, recombinant CADM1-EC-Fc protein consisting of the extracellular fragment domain of CADM1 fused to the Fc region of mouse IgG (UniProt Q9BY67)
T1 sequence: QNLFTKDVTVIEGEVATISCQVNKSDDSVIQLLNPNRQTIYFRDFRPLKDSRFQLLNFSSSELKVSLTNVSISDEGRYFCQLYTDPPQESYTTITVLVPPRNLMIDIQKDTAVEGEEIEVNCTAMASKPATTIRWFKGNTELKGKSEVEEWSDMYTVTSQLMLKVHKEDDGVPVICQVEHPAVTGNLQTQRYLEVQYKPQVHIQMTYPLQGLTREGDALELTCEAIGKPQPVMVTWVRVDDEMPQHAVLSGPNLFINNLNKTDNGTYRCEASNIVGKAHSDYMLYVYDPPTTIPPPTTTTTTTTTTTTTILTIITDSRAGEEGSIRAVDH

B1: CADM1-GFP on MDCK cells (MDCK+CADM1-GFP) (natural protein)
chain: QNLFTKDVTVIEGEVATISCQVNKSDDSVIQLLNPNRQTIYFRDFRPLKDSRFQLLNFSSSELKVSLTNVSISDEGRYFCQLYTDPPQESYTTITVLVPPRNLMIDIQKDTAVEGEEIEVNCTAMASKPATTIRWFKGNTELKGKSEVEEWSDMYTVTSQLMLKVHKEDDGVPVICQVEHPAVTGNLQTQRYLEVQYKPQVHIQMTYPLQGLTREGDALELTCEAIGKPQPVMVTWVRVDDEMPQHAVLSGPNLFINNLNKTDNGTYRCEASNIVGKAHSDYMLYVYDPPTTIPPPTTTTTTTTTTTTTILTIITDSRAGEEGSIRAVDHAVIGGVVAVVVFAMLCLLIILGRYFARHKGTYFTHEAKGADDAADADTAIINAEGGQNNSEEKKEYFI
cell spreading assay: average surface area of MDCK+CADM1-GFP cells on CADM1-EC-Fc-coated glass against the same cells on control IgG: 1.8 fold
